Values quoted from earlier work as cited in patent US6770020B2 (priority 2001, dated 2004).

Conditions: cited from earlier work

In the case of “Gd-DTPA-hydroxypropylpoly(D-lysine) [Gd-DTPA-pdl]”, the membrane permeability is listed as “membrane impermeable”.
